The results in this text go back to patent publication US20080170994A1 (ARMAGEN TECHNOLOGIES, published 2008).

The target of assay [1] is T1, human insulin receptor (HIR) extracellular domain (ECD) (human, UniProt P06213 28-956, limits assumed).
T1 construct: extracellular domain; Solid phase antigen of the HIR ELISA; also called HIR ECD; purified human insulin receptor
Description: ELISA on affinity purified HIR ECD. Here is the method:
The affinity of the fusion antibody for binding to the human insulin receptor (HIR) extracellular domain (ECD) was measured with an ELISA using affinity purified HIR ECD obtained from medium conditioned by CHO cells permanently transfected with the HIR ECD gene. […] The 50% saturation of binding, ED₅₀, is 0.53±0.02 nM for the chimeric HIRMAb. The ED₅₀ of fusion antibody binding to the HIR is 1.0±0.1 nM (FIG. 35). […] The HIR at the BBB is an heterotetrameric molecule comprised of two alpha and two beta chains. […] There is specific binding of the [¹²⁵I]-fusion antibody to human brain capillaries in a time-dependent process, whereas binding of the [¹²⁵I]-mouse anti-Aβ antibody is constant with time, and is non-specific (FIG. 36B).

Assay [2] concerns the target T2, Aβ^1-40 amyloid peptide (human, UniProt P05067 672-711).
T2 construct: domain: Aβ^1-40; Plated on 96-well plates in the ELISA and the IRMA; also called Aβ^1-40 peptide; 40 amino acid Aβ amyloid peptide of AD
The assay can be described thus: IRMA: [125I]-murine anti-Aβ MAb on plated Aβ^1-40, unlabelled antibody as competitor. On the procedure:
(§1) FIG. 34. Aβ¹⁻⁴⁰ immunoradiometric assay (IRMA) measures the binding of the [¹²⁵I]-murine anti-Aβ MAb to Aβ¹⁻⁴⁰ that is plated in wells of a 96-well plate. The murine anti-Aβ MAb is the original murine MAb against Aβ purified from hybridoma conditioned medium. In the absence of competitors of binding, approximately 20% of the total [¹²⁵I]-anti-Aβ MAb is bound to the Aβ¹⁻⁴⁰. […] The affinity of the fusion antibody for Aβ¹⁻⁴⁰ is equal to the affinity of the original murine anti-Aβ¹⁻⁴⁰ MAb
The affinity of the fusion antibody for binding to Aβ¹⁻⁴⁰ was compared to the same affinity of the murine hybridoma generated anti-Aβ MAb with an immunoradiometric assay (IMRA). In this assay, the Aβ¹⁻⁴⁰ is plated in 96-well plates, and the binding of [¹²⁵I]-murine anti-Aβ MAb to the […] is measured. […] Therefore, the affinity of the fusion antibody for Aβ¹⁻⁴⁰ is identical to that of the original 150 kDa hetero-tetrameric murine anti-Aβ MAb. This was a surprising finding, since the affinity of a ScFv for the target antigen is generally much lower than for the full, tetrameric MAb molecule. Owing to the bivalency of the tetrameric MAb, the affinity for the antigen is higher than the affinity of the monomeric ScFv. […]

The target in assay [3] is BBB insulin receptor of the Rhesus monkey (Rhesus monkey, UniProt Q28516 1-210). The assay can be described thus: cell-based or functional assay.
The target of assay [4] is T2, Aβ^1-40 amyloid peptide. The assay can be described thus: IRMA: competition with [125I]-murine anti-Aβ MAb on plated Aβ^1-40. On the procedure: as §1
The affinity of the fusion antibody for binding to Aβ¹⁻⁴⁰ was compared to the same affinity of the murine hybridoma generated anti-Aβ MAb with an immunoradiometric assay (IMRA). In this assay, the Aβ¹⁻⁴⁰ is plated in 96-well plates, and the binding of [¹²⁵I]-murine anti-Aβ MAb to the […] is measured. […] Therefore, the affinity of the fusion antibody for Aβ¹⁻⁴⁰ is identical to that of the original 150 kDa hetero-tetrameric murine anti-Aβ MAb. This was a surprising finding, since the affinity of a ScFv for the target antigen is generally much lower than for the full, tetrameric MAb molecule. Owing to the bivalency of the tetrameric MAb, the affinity for the antigen is higher than the affinity of the monomeric ScFv. The high affinity of the ScFv moiety of the fusion antibody for Aβ¹⁻⁴⁰ is attributed to the design of the fusion antibody molecule, which places the ScFv in a dimeric or bivalent conformation (FIG. 26).

In assay [5] the target is T2, Aβ^1-40 amyloid peptide. Description: IRMA on plated Aβ^1-40.

B1: chimeric HIRMAb (chimeric monoclonal antibody to the human insulin receptor) (antibody, human IgG1, kappa, V domains shown)
VH: QVQLQQSGPELVKPGALVKISCKASGYTFTNYDIHWVKQRPGQGLEWIGWIYPGDGSTKYNEKFKGKATLTADKSSSTAYMHLSSLTSEKSAVYFCAREWAYWGQGTLVTVSA
VL: DIQMTQSPSSLSASLGERVSLTCRASQDIGGNLYWLQQGPDGTIKRLIYATSSLDSGVPKRFSGSRSGSDYSLTISSLESEDFVDYYCLQYSSSPWTFGGGTKMEIKR
Turning to B1, the EC50 in assay [1] turned out to be 0.53 nM.

B2: murine anti-Aβ MAb (hybridoma generated) (antibody, V domains shown)
VH: QVQLQQSGAELVKPGATVKLSCKASGYSFNSHYIYWVKQRPGQGLEWIGEINPSNGAMNFNEKFKNKATLTVDKSSSTAYMQLSSLTSEDSAVYYCVRDPTSYWGQGTLVTVSA
VL: DVVMTQTPLSLPVSLGDQASISCRSSQSLVHSYGNTYLHWYLQKPGQSPKLLIYKVSNRFSGVPDRFSGSGSGTDFTLKISRVEAEDLGVYFCSQSTHVPYTFGGGTKLEIKR
notes: 150 kDa hetero-tetrameric mouse IgG (gamma heavy chain, kappa light chain) purified from hybridoma medium; also called mouse anti-Aβ MAb; mouse anti-Aβ antibody
B2 yielded a Kd with Aβ^1-40 amyloid peptide [2] of 32 nM.

B3: anti-Aβ ScFv/chimeric HIRMAb fusion antibody (bispecific antibody, human IgG1, kappa)
heavy: not shown
light: DIQMTQSPSSLSASLGERVSLTCRASQDIGGNLYWLQQGPDGTIKRLIYATSSLDSGVPKRFSGSRSGSDYSLTISSLESEDFVDYYCLQYSSSPWTFGGGTKMEIKRTVAAPSVFIFPPSDEQLKSGTASVVCLLNNFYPREAKVQWKVDNALQSGNSQESVTEQDSKDSTYSLSSTLTLSKADYEKHKVYACEVTHQGLSSPVTKSFNRGEC
notes: also called fusion protein; HIRMAb-mAβScFv
In the case of B3, the “brain volume of distribution (VD) in Rhesus monkey at 3 hours after intravenous injection” value in assay [3] was over 10 fold. Besides, in assay [1], a half-maximal effect (EC50) was put at 1 nM. In the assay with Aβ^1-40 amyloid peptide [4], the Kd came to 24 nM.

B4: Ala-497 form of the antibody fusion protein (N497A) (bispecific antibody, human IgG1, kappa)
heavy: not shown
light: DIQMTQSPSSLSASLGERVSLTCRASQDIGGNLYWLQQGPDGTIKRLIYATSSLDSGVPKRFSGSRSGSDYSLTISSLESEDFVDYYCLQYSSSPWTFGGGTKMEIKRTVAAPSVFIFPPSDEQLKSGTASVVCLLNNFYPREAKVQWKVDNALQSGNSQESVTEQDSKDSTYSLSSTLTLSKADYEKHKVYACEVTHQGLSSPVTKSFNRGEC
notes: also called fusion antibody with the N497A mutation
B4: the affinity in the assay with Aβ^1-40 amyloid peptide [4] corresponds to a Ki of 182 nM. Further, the “fold decrease of affinity against the Asn-497 fusion antibody” value with Aβ^1-40 amyloid peptide [5] is about 6 fold.

B5: Ala-499 form of the antibody fusion protein (S499A) (bispecific antibody, human IgG1, kappa)
heavy: not shown
light: DIQMTQSPSSLSASLGERVSLTCRASQDIGGNLYWLQQGPDGTIKRLIYATSSLDSGVPKRFSGSRSGSDYSLTISSLESEDFVDYYCLQYSSSPWTFGGGTKMEIKRTVAAPSVFIFPPSDEQLKSGTASVVCLLNNFYPREAKVQWKVDNALQSGNSQESVTEQDSKDSTYSLSSTLTLSKADYEKHKVYACEVTHQGLSSPVTKSFNRGEC
notes: also called fusion antibody with the S499A mutation
In the assay with Aβ^1-40 amyloid peptide [4], B5 gave a Ki of 271 nM. Moreover, the “fold decrease of affinity against the Ser-499 fusion antibody” value in the assay with Aβ^1-40 amyloid peptide [5] turned out to be 8 fold.
